According to patent US20170166655A1:
Blank lines part the entries; values can stand above or below the substance they belong to.

Tests used:
R131 FcγRIIa (human) = R131 FcγRIIa (human) (UniProt P12318); experiment: SPR
V158 FcγRIIIa (human) = V158 FcγRIIIa (human) (UniProt P08637); experiment: SPR
FcγRI (human) = FcγRI (human) (UniProt P12314); experiment: SPR
FcγRIIb (human) = FcγRIIb (human) (UniProt P31994); experiment: SPR
H131 FcγRIIa (human) = H131 FcγRIIa (human) (UniProt P12318); experiment: SPR
F158 FcγRIIIa (human) = F158 FcγRIIIa (human) (UniProt P08637); experiment: SPR
[1] = molecular target: human V158 FcγRIIIa, extracellular region (human) (UniProt P08637); experiment: SPR
[2] = molecular target: human FcγRIIIa on human PBMC effector cells (human) (UniProt P08637); experiment: cell-based or functional assay
[3] = molecular target: human F158 FcγRIIIa, extracellular region (human) (UniProt P08637); experiment: SPR
[4] = molecular target: human V158 FcγRIIIa, extracellular region (human) (UniProt P08637); experiment: AlphaScreen competition
[5] = molecular target: human F158 FcγRIIIa, extracellular region (human) (UniProt P08637); experiment: AlphaScreen competition

- Kd (R131 FcγRIIa (human)): 27.8 nM
- Kd (V158 FcγRIIIa (human)): 33.7 nM
- Kd (FcγRI (human)): 0.634 nM
- Kd (FcγRIIb (human)): 95.8 nM
- Kd (H131 FcγRIIa (human)): 29 nM
- Kd (F158 FcγRIIIa (human)): 96.2 nM
Substance: IgG2_S239D/I332E/^V234L

- Fold WT [1]: 384 fold
Substance: alemtuzumab IgG1 E272H (antibody)

- Fold WT [1]: 5.66 fold
Substance: alemtuzumab IgG1 H268D (antibody)

- Fold WT [1]: 2.31 fold
Substance: alemtuzumab IgG1 E283H (antibody)

- ADCC EC50, FIG. 117c, PBMCs F158/F158 FcγRIIIa [2]: 0.2 ng/mL
- ADCC Fold WT, FIG. 117c, PBMCs F158/F158 FcγRIIIa [2]: 3.6 fold
- ADCC log(EC50), FIG. 117c, PBMCs F158/F158 FcγRIIIa [2]: -0.72 log(ng/ml)
Substance: trastuzumab IgG1 S298A/E333A/K334A (antibody)

- Kd [3]: 156 nM
- Kd [1]: 39 nM
Substance: alemtuzumab IgG1 S298A/E333A/K334A (antibody)

- fold of glycosylated WT alemtuzumab [4]: 0.8 fold
Substance: alemtuzumab IgG1 S239D/N297D/I332E (aglycosylated) (antibody)

- ADCC EC50, FIG. 117b [2]: 1.1 ng/mL
- ADCC Fold WT, FIG. 117b [2]: 10.5 fold
- ADCC log(EC50), FIG. 117b [2]: 0.04 log(ng/ml)
Substance: trastuzumab IgG1 A330L/I332E (antibody)

- Fold WT [1]: 1.41 fold
- Fold WT [4]: 1.46 fold
Substance: alemtuzumab IgG1 E272P (antibody)

- ADCC EC50, FIG. 117b [2]: 0.9 ng/mL
- ADCC Fold WT, FIG. 117b [2]: 12.8 fold
- ADCC log(EC50), FIG. 117b [2]: -0.04 log(ng/ml)
Substance: trastuzumab IgG1 A330Y/I332E (antibody)

- Fold WT [1]: 11.2 fold
Substance: alemtuzumab IgG1 I332D (antibody)

- Fold WT [1]: 2.56 fold
Substance: alemtuzumab IgG1 E283L (antibody)

- Fold WT [1]: 1.51 fold
Substance: alemtuzumab IgG1 V284E (antibody)

- Fold WT [1]: 3.28 fold
- Fold WT [4]: 2.64 fold
Substance: alemtuzumab IgG1 S239E (antibody)

- Kd [3]: 4.9 nM
- Kd [1]: 8.7 nM
Substance: trastuzumab IgG1 S239D/I332E/S298A (antibody)

- Kd [3]: 285 nM
- Kd [1]: 52 nM
Substance: alemtuzumab IgG1 S298A (antibody)

- Fold WT [1]: 3.13 fold
- Fold WT [4]: 1.86 fold
Substance: alemtuzumab IgG1 K326E (antibody)

- Fold WT [1]: 7.1 fold
- Fold WT [4]: 15.2 fold
Substance: trastuzumab IgG1 K334I (antibody)

- Kd [3]: 550 nM
- Kd [1]: 64 nM
Substance: alemtuzumab IgG1 V264I (antibody)

- ADCC EC50, FIG. 118b, WIL2-S target cells, human PBMCs [2]: 1.7 ng/mL
- ADCC EC50, FIG. 118c, PBMCs F158/F158 FcγRIIIa [2]: 5.9 ng/mL
- ADCC log(EC50), FIG. 118b, WIL2-S target cells, human PBMCs [2]: 0.23 log(ng/ml)
- ADCC log(EC50), FIG. 118c, PBMCs F158/F158 FcγRIIIa [2]: 0.77 log(ng/ml)
Substance: rituximab IgG1 WT (antibody)

- Fold WT [1]: 5.5 fold
- Fold WT [4]: 2.35 fold
Substance: alemtuzumab IgG1 E258H (antibody)

- ADCC EC50, FIG. 118b [2]: 0.37 ng/mL
- ADCC Fold WT, FIG. 118b [2]: 4.6 fold
- ADCC log(EC50), FIG. 118b [2]: -0.44 log(ng/ml)
Substance: rituximab IgG1 S298A/E333A/K334A (antibody)

- Kd [3]: 730 nM
- Kd [1]: 68 nM
Substance: alemtuzumab IgG1 WT (antibody)

- Fold WT [1]: 1.38 fold
Substance: alemtuzumab IgG1 E272R (antibody)

- Kd (R131 FcγRIIa (human)): 67.4 nM
- Kd (V158 FcγRIIIa (human)): 25.2 nM
- Kd (FcγRI (human)): 3.28 nM
- Kd (FcγRIIb (human)): 238 nM
- Kd (H131 FcγRIIa (human)): 82.2 nM
- Kd (F158 FcγRIIIa (human)): 53.2 nM
Substance: IgG2_S239D/I332E/^P233L

- Kd (R131 FcγRIIa (human)): 64.2 nM
- Kd (V158 FcγRIIIa (human)): 21.6 nM
- Kd (FcγRI (human)): 1.94 nM
- Kd (FcγRIIb (human)): 264 nM
- Kd (H131 FcγRIIa (human)): 71.8 nM
- Kd (F158 FcγRIIIa (human)): 59.6 nM
Substance: IgG2_S239D/I332E/^P233EL

- Kd (R131 FcγRIIa (human)): 260 nM
- Kd (V158 FcγRIIIa (human)): 73.6 nM
- Kd (FcγRI (human)): 0.145 nM
- Kd (FcγRIIb (human)): 663 nM
- Kd (H131 FcγRIIa (human)): 313 nM
- Kd (F158 FcγRIIIa (human)): 69400 nM
Substance: IgG2_P233E/V234L/A235L/^235G/G327A

- ADCC EC50, DoHH-2 target cells, PBMCs V158/F158 FcγRIIIa [2]: 3 ng/mL
- ADCC Fold WT, DoHH-2 target cells, PBMCs V158/F158 FcγRIIIa [2]: 3.3 fold
- ADCC log(EC50), DoHH-2 target cells, PBMCs V158/F158 FcγRIIIa [2]: 0.49 log(ng/ml)
Substance: alemtuzumab IgG1 S239D/I332E (antibody)

- Fold WT [1]: 22.4 fold
Substance: alemtuzumab IgG1 K246H (antibody)

- Fold WT [1]: 12.8 fold
Substance: alemtuzumab IgG1 S304T (antibody)

- Fold WT [1]: 0.65 fold
Substance: trastuzumab IgG1 E272H (antibody)

- Kd (R131 FcγRIIa (human)): 63.9 nM
- Kd (FcγRIIb (human)): 101 nM
- Kd (H131 FcγRIIa (human)): 127 nM
- Kd (F158 FcγRIIIa (human)): 12.5 nM
Substance: IgG2_P233E/V234L/A235L/^235G/S239D/I332E/G327A

- Kd [3]: 72 nM
- Kd [1]: 31 nM
Substance: alemtuzumab IgG1 I332E (antibody)

- Fold WT [1]: 1.86 fold
Substance: alemtuzumab IgG1 T260H (antibody)

- Fold WT [3]: 14 fold
- Kd [3]: 52 nM
- Fold WT [1]: 4 fold
- Kd [1]: 17 nM
- ADCC EC50, DoHH-2 target cells, PBMCs V158/F158 FcγRIIIa [2]: 4 ng/mL
- ADCC Fold WT, DoHH-2 target cells, PBMCs V158/F158 FcγRIIIa [2]: 2.5 fold
- ADCC log(EC50), DoHH-2 target cells, PBMCs V158/F158 FcγRIIIa [2]: 0.6 log(ng/ml)
- Fold WT [5]: 15.6 fold
- IC50 [5]: 1.1 nM
- Fold WT [4]: 12.8 fold
- IC50 [4]: 0.5 nM
Substance: alemtuzumab IgG1 V264I/I332E (antibody)

- Fold WT [1]: 1.41 fold
Substance: alemtuzumab IgG1 R255Y (antibody)

- Kd (R131 FcγRIIa (human)): 68.5 nM
- Kd (V158 FcγRIIIa (human)): 12.4 nM
- Kd (FcγRI (human)): 0.0908 nM
- Kd (FcγRIIb (human)): 84.2 nM
- Kd (H131 FcγRIIa (human)): 68.3 nM
- Kd (F158 FcγRIIIa (human)): 50.2 nM
Substance: IgG2_P233E/V234L/A235L/^235G/S239D/I332E

- Fold WT [1]: 3.68 fold
- Fold WT [4]: 19.9 fold
Substance: trastuzumab IgG1 E283L (antibody)

- fold of glycosylated WT alemtuzumab [4]: 0.4 fold
Substance: alemtuzumab IgG1 N297D/A330Y/I332E (aglycosylated) (antibody)

- Fold WT [1]: 2.57 fold
- Fold WT [4]: 19 fold
Substance: trastuzumab IgG1 I332D (antibody)

- Fold WT [1]: 2.62 fold
Substance: alemtuzumab IgG1 S267E (antibody)

- Fold WT [1]: 1.77 fold
Substance: alemtuzumab IgG1 E258Y (antibody)
